Source: patent publication US20230192834A1

T1: TGFβ2 (R&D Systems)
T1 sequence (P61812 303-414, species assumed, looked up): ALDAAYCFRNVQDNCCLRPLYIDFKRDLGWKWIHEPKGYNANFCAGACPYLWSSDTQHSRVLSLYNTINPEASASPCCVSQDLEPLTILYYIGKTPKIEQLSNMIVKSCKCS

T2: TGFβ3 (R&D Systems)
T2 sequence (P10600 301-412, species assumed, looked up): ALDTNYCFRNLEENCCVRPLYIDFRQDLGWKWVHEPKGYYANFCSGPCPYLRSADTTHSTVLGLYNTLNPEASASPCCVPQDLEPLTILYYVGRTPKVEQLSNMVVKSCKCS


Experiments:
[1] = target: T1, TGFβ2 (R&D Systems); assay: cell-based or functional assay
[2] = target: T2, TGFβ3 (R&D Systems); assay: cell-based or functional assay
[3] = target: TGFβ1 (R&D Systems); assay: cell-based or functional assay
[4] = target: T1, TGFβ2 (R&D Systems); assay: SPR (Biacore T200), TGFβ amine-coupled to chip, 1:1 fit
[5] = target: T2, TGFβ3 (R&D Systems); assay: as above
[6] = target: TGFβ1 (R&D Systems); assay: as above

TGFβ1 (R&D Systems), sequence (P01137 279-390): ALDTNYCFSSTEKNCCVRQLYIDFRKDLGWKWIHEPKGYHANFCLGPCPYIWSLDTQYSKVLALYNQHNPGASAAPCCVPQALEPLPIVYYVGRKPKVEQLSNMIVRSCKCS

Binder | TGFb2 IC50 (SMAD3 phosphorylation in CMVICs, AlphaLISA) [1] | TGFb3 IC50 (SMAD3 phosphorylation in CMVICs, AlphaLISA) [2] | TGFb1 IC50 (SMAD3 phosphorylation in CMVICs, AlphaLISA) [3] | Kd [4] | Kd [5] | Kd [6]
Felinized anti-TGFβ1,2,3 antibody VH6.1 - VL3 (antibody, V domains shown) VH: QVLLVQSGAEVRTPGASVKIFCKASGYGFTSNVISWVRQSPAQGLEWMGGVIPIVDIANYAQRFKGRLTLTADTSTDTAYMELSSLRSADTAMYYCASTLGLVLDAMDYWGQGTLVTVSS VL: EIQMTQSPSSLSASPGDRVTITCRASQSLGSSYLAWYQQKPGKVPKLLIYGASSRAPGVPSRFSGSGSGTDFTLTISSLEPEDAATYYCQQYADSPITFGQGTKLEIKR | 0.223 µg/mL | 0.014 µg/mL | 0.425 µg/mL | 2.99 nM | 3.57 nM | 3.54 nM
Felinized anti-TGFβ1,2,3 antibody VH3.2 - VL3 (antibody, V domains shown) VH: DVQLVESGGDLVKPGGSLRLTCVASGYTFSSNVMHWVRQAPGKGLQWVAYVIPIVDIAYYADSVKGRFTISIDNSKNTLYLQMNSLKTEDTATYYCARTLGLVLDAMDYWGQGTLVTVSS VL: EIQMTQSPSSLSASPGDRVTITCRASQSLGSSYLAWYQQKPGKVPKLLIYGASSRAPGVPSRFSGSGSGTDFTLTISSLEPEDAATYYCQQYADSPITFGQGTKLEIKR | 0.14 µg/mL | 0.023 µg/mL | 0.132 µg/mL | 0.751 nM | 0.144 nM | 0.66 nM
Felinized anti-TGFβ1,2,3 antibody VH3.2 - VL8 (antibody, V domains shown) VH: DVQLVESGGDLVKPGGSLRLTCVASGYTFSSNVMHWVRQAPGKGLQWVAYVIPIVDIAYYADSVKGRFTISIDNSKNTLYLQMNSLKTEDTATYYCARTLGLVLDAMDYWGQGTLVTVSS VL: DIVMTQSPGSLAGSPGQQVTMNCRASQSLGSSYLAWYQQKPGQHPELLIYGASSRAPGVPDRFSGSGSGTDFTLTISNLQAEDVANYYCQQYADSPITFGQGTKLEIKR | 0.037 µg/mL | 0.008 µg/mL | 0.072 µg/mL | 2.13 nM | 0.0466 nM | 0.971 nM
Felinized anti-TGFβ1,2,3 antibody VH3.8 - VL7 (antibody, V domains shown) VH: QVQLVQSGAEVKKPGSSVKVSCKASGYTFSSNVISWVRQAPGKGLQWVAGVIPIVDIANYAQRFKGRFTISIDNSKNTLYLQMNSLKTEDTATYYCASTLGLVLDAMDYWGQGTLVTVSS VL: DIVLTQPPSLSVNLGQTARITCRASQSLGSSYLAWYQQKPGQAPKLVTYGASSRAPGIPDRFSGTNSGITATLTISGARAEDEADYYCQQYADSPITFGQGTKLEIKR | 2.67 µg/mL | 0.204 µg/mL | 1.36 µg/mL | 1.94 nM | 0.635 nM | 3.07 nM
Felinized anti-TGFβ1,2,3 antibody VH2.1 - VL8 (antibody, V domains shown) VH: QVLLVQSGADVRKPGASVKIFCKASGYTFTSNVISWVRQTPAQGFEWMGGVIPIVDIANYAQRFKGRLVLTADTSTNTAYMELRSLKSADTAVYYCASTLGLVLDAMDYWGQGSLVTVSS VL: DIVMTQSPGSLAGSPGQQVTMNCRASQSLGSSYLAWYQQKPGQHPELLIYGASSRAPGVPDRFSGSGSGTDFTLTISNLQAEDVANYYCQQYADSPITFGQGTKLEIKR | 0.031 µg/mL | 0.124 µg/mL | 0.266 µg/mL | 3.41 nM | 1.06 nM | 3.31 nM

More lines, in order of falling Kd [4], values ahead:

TGFb2 IC50 (SMAD3 phosphorylation in CMVICs, AlphaLISA) [1] | TGFb3 IC50 (SMAD3 phosphorylation in CMVICs, AlphaLISA) [2] | TGFb1 IC50 (SMAD3 phosphorylation in CMVICs, AlphaLISA) [3] | Kd [4] | Kd [5] | Kd [6] | Binder
20.6 µg/mL | 2.2 µg/mL | 4.59 µg/mL | 2.16 nM | 3.52 nM | 4.95 nM | Felinized anti-TGFβ1,2,3 antibody VH2.2 - VL7 (antibody, V domains shown) VH: QVLLVQSGADVRKPGASVKIFCKASGYTFSSNVMHWVRQTPAQGFEWMGSVIPIVDIATYARRFQGRLVLTADTSTNTAYMELRSLKSADTAVYYCARTLGLVLDAMDYWGQGSLVTVSS VL: DIVLTQPPSLSVNLGQTARITCRASQSLGSSYLAWYQQKPGQAPKLVTYGASSRAPGIPDRFSGTNSGITATLTISGARAEDEADYYCQQYADSPITFGQGTKLEIKR
0.19 µg/mL | 0.053 µg/mL | 0.797 µg/mL | 1.84 nM | 0.0051 nM | 0.333 nM | Felinized anti-TGFβ1,2,3 antibody VH3.2 - VL1 (antibody, V domains shown) VH: DVQLVESGGDLVKPGGSLRLTCVASGYTFSSNVMHWVRQAPGKGLQWVAYVIPIVDIAYYADSVKGRFTISIDNSKNTLYLQMNSLKTEDTATYYCARTLGLVLDAMDYWGQGTLVTVSS VL: ETVLTQSPGTLSLSPGERATLSCRASQSLGSSYLAWYQQKPGQAPRLLIYGASSRAPGIPDRFSGSGSGTDFTLTISRLEPEDFAVYYCQQYADSPITFGQGTKLEIKR
0.048 µg/mL | 0.018 µg/mL | 0.139 µg/mL | 0.589 nM | 0.434 nM | 0.857 nM | Felinized anti-TGFβ1,2,3 antibody VH3.2 - VL7 (antibody, V domains shown) VH: DVQLVESGGDLVKPGGSLRLTCVASGYTFSSNVMHWVRQAPGKGLQWVAYVIPIVDIAYYADSVKGRFTISIDNSKNTLYLQMNSLKTEDTATYYCARTLGLVLDAMDYWGQGTLVTVSS VL: DIVLTQPPSLSVNLGQTARITCRASQSLGSSYLAWYQQKPGQAPKLVTYGASSRAPGIPDRFSGTNSGITATLTISGARAEDEADYYCQQYADSPITFGQGTKLEIKR
